Results on one substance are retold here after doi:10.1101/2023.12.08.570755.

The target of this assay is activation domain of SRC-3 (ACTR), labelled with AlexaFluor 647, with a ssDNA handle. The assay can be described thus: FRET or BRET. Background: BRET reads energy transfer from a luciferase to a nearby fluorophore.

As for “nuclear-coactivator binding domain of the CBP/p300 transcription factor (NCBD), labelled with LD750 (domain or fragment)”, the most likely lifetime of the intermediate state (transient encounter complex), τi came out at 96 μs.
